For five substances, EC50 of hC3 cleavage, EC50 hC3 cleavage and EC50 (nM), cleavage of purified hC3 in vitro results are on record in patent US20240018502A1.

The target in test [1] is plasma purified human complement protein C3 (human) (UniProt P01024). Put plainly: cell-based or functional assay.
The target of test [2] is human complement protein C3 (human) (UniProt P01024). Put plainly: cell-based or functional assay.
Chain of human complement protein C3 (human) (P01024 23-667, chain 1 of 2): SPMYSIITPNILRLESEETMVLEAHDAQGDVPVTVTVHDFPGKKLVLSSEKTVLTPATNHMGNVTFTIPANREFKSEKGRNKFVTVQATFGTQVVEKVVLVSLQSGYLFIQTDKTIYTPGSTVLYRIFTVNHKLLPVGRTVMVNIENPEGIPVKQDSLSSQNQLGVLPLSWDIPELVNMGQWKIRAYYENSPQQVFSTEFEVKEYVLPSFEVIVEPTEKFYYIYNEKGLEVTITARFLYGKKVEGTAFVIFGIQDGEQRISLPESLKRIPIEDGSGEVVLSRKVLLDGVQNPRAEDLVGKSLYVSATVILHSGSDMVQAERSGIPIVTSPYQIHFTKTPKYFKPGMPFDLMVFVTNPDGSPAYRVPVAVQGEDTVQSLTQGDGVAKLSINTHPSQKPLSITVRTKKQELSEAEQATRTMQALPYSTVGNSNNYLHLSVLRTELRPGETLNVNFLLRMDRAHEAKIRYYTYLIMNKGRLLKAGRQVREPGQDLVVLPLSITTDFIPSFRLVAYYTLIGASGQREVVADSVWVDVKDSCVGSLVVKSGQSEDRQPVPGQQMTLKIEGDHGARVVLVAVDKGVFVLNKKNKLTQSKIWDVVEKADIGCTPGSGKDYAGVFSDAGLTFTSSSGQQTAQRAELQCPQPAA
Chain of human complement protein C3 (human) (P01024 672-1663, chain 2 of 2): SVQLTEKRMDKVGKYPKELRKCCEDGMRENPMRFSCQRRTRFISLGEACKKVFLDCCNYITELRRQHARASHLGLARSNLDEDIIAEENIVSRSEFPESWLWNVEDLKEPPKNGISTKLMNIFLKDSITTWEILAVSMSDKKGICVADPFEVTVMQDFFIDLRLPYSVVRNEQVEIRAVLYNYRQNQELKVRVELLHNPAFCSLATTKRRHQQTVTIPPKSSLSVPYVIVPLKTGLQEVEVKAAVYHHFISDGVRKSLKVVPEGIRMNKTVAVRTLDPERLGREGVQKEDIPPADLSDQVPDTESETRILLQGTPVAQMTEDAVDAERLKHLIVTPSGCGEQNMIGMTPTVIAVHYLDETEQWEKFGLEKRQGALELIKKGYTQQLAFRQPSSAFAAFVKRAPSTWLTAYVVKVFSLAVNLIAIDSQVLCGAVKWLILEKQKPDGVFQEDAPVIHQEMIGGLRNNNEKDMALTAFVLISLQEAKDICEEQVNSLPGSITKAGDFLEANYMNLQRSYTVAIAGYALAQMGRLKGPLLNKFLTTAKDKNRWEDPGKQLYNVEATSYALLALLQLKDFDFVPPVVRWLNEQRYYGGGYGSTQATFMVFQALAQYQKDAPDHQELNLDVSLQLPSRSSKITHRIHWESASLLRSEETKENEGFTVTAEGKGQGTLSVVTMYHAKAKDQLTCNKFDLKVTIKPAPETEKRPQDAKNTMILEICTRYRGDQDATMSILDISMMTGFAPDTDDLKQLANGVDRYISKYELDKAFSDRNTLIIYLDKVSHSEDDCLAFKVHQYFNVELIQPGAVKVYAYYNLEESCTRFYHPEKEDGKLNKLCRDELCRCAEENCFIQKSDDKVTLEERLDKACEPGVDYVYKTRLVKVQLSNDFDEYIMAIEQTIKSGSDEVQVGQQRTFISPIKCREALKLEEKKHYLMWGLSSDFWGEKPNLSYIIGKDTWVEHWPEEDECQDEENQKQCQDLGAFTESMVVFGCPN

Chain of plasma purified human complement protein C3 (human) (P01024 23-667, chain 1 of 2): as the sequence (P01024 23-667, chain 1 of 2) above
Chain of plasma purified human complement protein C3 (human) (P01024 672-1663, chain 2 of 2): as the sequence (P01024 672-1663, chain 2 of 2) above

“MTSP-1 H40R/I41H/Y60gL/F97D/F99L/C122S/G151N/Q175M/D217I/K224S (from UniProt Q9Y5Y6 615-855) (enzyme)” registered an EC50 of hC3 cleavage in test [1] of 7.41 nM. Still for that read-out and setting: the value for “MTSP-1 H40R/I41H/F97D/F99L/C122S/Q175L/Q192G/D217Q/K224R (from UniProt Q9Y5Y6 615-855) (enzyme)” was 14.9 nM. “MTSP-1 protease domain Q38Y/I41S/D60bT/F60eR/Y60gW/D96M/F97N/T98G/F99L/C122S/Q175L/Q192D (from UniProt Q9Y5Y6 615-855) (enzyme)”: the EC50 hC3 cleavage in test [1] was 3.75 nM. Turning to “MTSP-1 H40R/I41H/F97D/F99L/C122S/G151D/Q192G (from UniProt Q9Y5Y6 615-855) (enzyme)”, in test [1], the EC50 of hC3 cleavage was found to be 1530 nM. In test [2], “Q38Y/I41S/D60bT/F60eR/Y60gW/D96M/F97N/T98G/F99L/C122S/Q175L/Q192D (from UniProt Q9Y5Y6 615-855) (enzyme)” yielded an EC50 (nM), cleavage of purified hC3 in vitro of 3.75 nM.
